Data from patent US20110076234A1 (MOLMED, published 2011).
*1 amine or outer side, *2 acyl side, *3 side chain or, on linkers, in order; H or OH if unused. Where no end group is shown, it is not given here. [ ]: non-standard residue; d: D form. βAsp = O=C(O)[C@H](CC(=O)[*:2])N[*:1]

B1: D-DGR-pep (sequence of NGR-pep with D-D in place of N) (peptide)
peptide: C[dD]GRCGVRY
modifications: cysteine pairing not given here
B2: isoDGR-pep (sequence of NGR-pep with L-isoD in place of N) (peptide)
peptide: C[βAsp]GRCGVRY
modifications: cysteine pairing not given here

Molecular target: T1, Human αvβ3 integrin (purified) (human, UniProt P06756 31-1048; P05106 27-788)
T1 construct: Bought purified integrin, adsorbed on microtiter plates (0.5-2 µg/ml in DPBS with Ca2+ and Mg2+); also called avβ3; vitronectin receptor
Assay: competitive ELISA on αvβ3-coated plates with biotinylated NGR-TNF as labelled ligand (legend of FIG. 7)

T1 sequence (P06756 31-1048, form in doubt, chain 1 of 2): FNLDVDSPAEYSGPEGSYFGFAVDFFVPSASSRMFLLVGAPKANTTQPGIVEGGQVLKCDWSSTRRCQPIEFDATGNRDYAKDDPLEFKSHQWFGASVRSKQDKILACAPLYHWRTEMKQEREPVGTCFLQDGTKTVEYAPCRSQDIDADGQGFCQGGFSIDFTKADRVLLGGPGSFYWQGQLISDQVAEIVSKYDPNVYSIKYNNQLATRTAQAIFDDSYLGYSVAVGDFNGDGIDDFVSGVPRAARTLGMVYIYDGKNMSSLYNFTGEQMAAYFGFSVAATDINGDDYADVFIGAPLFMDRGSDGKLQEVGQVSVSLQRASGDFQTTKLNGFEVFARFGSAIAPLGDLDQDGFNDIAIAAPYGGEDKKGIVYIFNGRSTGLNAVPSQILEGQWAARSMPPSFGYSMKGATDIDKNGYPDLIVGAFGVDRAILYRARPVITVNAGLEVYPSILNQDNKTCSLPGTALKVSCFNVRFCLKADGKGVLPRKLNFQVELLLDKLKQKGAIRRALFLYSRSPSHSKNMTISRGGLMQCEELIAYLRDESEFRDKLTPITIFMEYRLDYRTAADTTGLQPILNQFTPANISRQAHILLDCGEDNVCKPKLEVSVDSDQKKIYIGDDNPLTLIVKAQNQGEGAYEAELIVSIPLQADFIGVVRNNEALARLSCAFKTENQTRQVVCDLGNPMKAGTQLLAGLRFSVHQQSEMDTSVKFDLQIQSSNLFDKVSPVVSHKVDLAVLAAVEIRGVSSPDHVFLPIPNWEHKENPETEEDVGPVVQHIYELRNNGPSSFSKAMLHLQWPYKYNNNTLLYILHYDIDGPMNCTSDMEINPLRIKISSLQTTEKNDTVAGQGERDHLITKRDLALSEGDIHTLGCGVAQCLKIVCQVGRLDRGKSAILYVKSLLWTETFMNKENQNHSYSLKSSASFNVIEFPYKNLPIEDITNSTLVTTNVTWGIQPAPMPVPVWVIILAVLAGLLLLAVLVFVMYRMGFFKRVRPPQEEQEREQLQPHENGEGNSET
T1 sequence (P05106 27-788, form in doubt, chain 2 of 2): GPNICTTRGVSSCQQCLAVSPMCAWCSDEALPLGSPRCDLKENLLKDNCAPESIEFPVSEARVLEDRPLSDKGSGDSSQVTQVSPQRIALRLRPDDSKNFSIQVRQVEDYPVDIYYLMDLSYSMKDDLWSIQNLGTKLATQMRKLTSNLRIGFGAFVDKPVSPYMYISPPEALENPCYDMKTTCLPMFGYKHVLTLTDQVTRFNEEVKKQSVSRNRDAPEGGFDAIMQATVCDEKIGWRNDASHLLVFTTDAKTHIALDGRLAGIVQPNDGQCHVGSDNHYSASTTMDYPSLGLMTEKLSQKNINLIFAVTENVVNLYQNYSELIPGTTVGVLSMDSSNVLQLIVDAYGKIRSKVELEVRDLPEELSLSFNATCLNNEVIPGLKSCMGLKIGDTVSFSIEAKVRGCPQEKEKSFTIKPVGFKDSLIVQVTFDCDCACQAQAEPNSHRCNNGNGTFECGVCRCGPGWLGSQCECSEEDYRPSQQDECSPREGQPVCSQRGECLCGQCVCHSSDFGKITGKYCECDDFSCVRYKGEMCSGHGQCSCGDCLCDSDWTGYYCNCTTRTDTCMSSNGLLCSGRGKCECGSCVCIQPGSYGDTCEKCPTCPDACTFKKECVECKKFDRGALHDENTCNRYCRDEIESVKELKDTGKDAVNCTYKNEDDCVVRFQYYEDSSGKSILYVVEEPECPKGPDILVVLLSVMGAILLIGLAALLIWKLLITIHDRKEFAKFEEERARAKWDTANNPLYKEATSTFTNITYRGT

Row | Binder | EC50 [µM]
1 | B1 | 0.1
2 | B2 | 0.1
